{"source": "paper PMC4055580", "about": "“Simplagrin, a Platelet Aggregation Inhibitor from Simulium nigrimanum Salivary Glands Specifically Binds to the Von Willebrand Factor Receptor in Collagen and Inhibits Carotid Thrombus Formation In Vivo” (PLoS Neglected Tropical Diseases, 2014)", "molecules": {"B1": {"name": "Simplagrin (Simulium platelet aggregation inhibitor), recombinant (natural protein, Simulium nigrimanum, UniProt D1FQ14 21-286, looked up)", "chain": "SPIPDEESEETEDAEQEEDAEEEEHAEEEAQEDGDQTQDTDQESDDGQEETANQGSDEQQEEDGSHGTDETDDEAAGSRTEDVESGGDEQNDGEENGSQENGEEVTGGEDDSHGAQDSEGGEEDAAAQEAGGKKSKGKGAKGGQGSNRAGSSSGGEESAAHTYQEVMRILNGIKINAKEPLKSRLVNGLQYLKVDTINRVENIQKFSRIEHCFGNLDHIVQLYAGDAVERNDYCKGTCIDMVSNEFRGQMEELTSRLYPCLQGGYY", "notes": "Simplagrin (cluster Sim-50), salivary gland protein of Simulium nigrimanum; precursor of 286 aa with a predicted signal peptide of 20 aa; the construct holds the mature protein and a 6X-His tag before the stop codon; Synthetic codon optimised gene in the VR2001 TOPO vector; also called Sim-50; recombinant Simplagrin; source: FreeStyle293 F (HEK293) cells, transfected, secreted; purified (Ni2+ …)"}}, "key": {"[1]": {"molecular_target": "Simplagrin (Simulium platelet aggregation inhibitor), recombinant (Simulium nigrimanum) (UniProt D1FQ14)", "assay": "SPR; steady state: Simplagrin immobilised on CM5 (500 RU), soluble collagens as analyte, HBS-P; KD as the analyte concentration at 50% of saturation"}, "[2]": {"molecular_target": "Simplagrin (Simulium platelet aggregation inhibitor), recombinant (Simulium nigrimanum) (UniProt D1FQ14)", "assay": "SPR; kinetics: Simplagrin as ligand, RGQOGVMGF peptide as analyte (1-500 nM), 30 µL/min for 180 s, dissociation 600 s, global 1:1 model"}, "[3]": {"molecular_target": "Soluble human collagen type I (human) (UniProt P02452)", "sequence (P02452 162-1218, chain 1 of 2)": "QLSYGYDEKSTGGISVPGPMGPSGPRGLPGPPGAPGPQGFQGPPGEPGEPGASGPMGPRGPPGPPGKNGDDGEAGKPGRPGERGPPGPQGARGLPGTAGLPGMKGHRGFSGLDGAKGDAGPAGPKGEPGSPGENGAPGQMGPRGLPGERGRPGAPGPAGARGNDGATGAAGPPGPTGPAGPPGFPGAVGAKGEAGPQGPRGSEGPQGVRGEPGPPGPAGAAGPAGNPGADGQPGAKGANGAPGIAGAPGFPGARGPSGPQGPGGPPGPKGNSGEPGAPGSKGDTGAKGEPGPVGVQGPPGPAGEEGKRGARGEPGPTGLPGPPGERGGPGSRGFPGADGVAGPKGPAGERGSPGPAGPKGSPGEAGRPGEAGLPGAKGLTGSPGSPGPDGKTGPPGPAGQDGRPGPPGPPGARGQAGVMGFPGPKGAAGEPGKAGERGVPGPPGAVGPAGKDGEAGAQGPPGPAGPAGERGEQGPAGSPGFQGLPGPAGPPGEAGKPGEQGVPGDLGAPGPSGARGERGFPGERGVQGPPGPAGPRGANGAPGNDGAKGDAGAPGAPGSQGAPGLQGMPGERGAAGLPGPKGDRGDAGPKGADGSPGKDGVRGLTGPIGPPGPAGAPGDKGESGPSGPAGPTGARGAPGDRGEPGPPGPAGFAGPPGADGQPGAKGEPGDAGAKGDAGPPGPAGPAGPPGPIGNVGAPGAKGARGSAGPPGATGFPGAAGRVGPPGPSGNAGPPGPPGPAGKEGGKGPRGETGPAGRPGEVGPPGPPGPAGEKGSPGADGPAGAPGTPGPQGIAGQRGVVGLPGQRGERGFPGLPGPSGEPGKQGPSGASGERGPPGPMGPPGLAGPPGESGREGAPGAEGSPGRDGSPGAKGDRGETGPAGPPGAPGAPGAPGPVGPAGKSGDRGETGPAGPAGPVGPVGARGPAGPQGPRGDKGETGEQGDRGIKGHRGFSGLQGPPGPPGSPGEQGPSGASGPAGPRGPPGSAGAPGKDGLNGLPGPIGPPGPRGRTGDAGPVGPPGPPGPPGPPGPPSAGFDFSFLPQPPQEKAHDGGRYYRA", "sequence (P08123 80-1119, chain 2 of 2, further chain)": "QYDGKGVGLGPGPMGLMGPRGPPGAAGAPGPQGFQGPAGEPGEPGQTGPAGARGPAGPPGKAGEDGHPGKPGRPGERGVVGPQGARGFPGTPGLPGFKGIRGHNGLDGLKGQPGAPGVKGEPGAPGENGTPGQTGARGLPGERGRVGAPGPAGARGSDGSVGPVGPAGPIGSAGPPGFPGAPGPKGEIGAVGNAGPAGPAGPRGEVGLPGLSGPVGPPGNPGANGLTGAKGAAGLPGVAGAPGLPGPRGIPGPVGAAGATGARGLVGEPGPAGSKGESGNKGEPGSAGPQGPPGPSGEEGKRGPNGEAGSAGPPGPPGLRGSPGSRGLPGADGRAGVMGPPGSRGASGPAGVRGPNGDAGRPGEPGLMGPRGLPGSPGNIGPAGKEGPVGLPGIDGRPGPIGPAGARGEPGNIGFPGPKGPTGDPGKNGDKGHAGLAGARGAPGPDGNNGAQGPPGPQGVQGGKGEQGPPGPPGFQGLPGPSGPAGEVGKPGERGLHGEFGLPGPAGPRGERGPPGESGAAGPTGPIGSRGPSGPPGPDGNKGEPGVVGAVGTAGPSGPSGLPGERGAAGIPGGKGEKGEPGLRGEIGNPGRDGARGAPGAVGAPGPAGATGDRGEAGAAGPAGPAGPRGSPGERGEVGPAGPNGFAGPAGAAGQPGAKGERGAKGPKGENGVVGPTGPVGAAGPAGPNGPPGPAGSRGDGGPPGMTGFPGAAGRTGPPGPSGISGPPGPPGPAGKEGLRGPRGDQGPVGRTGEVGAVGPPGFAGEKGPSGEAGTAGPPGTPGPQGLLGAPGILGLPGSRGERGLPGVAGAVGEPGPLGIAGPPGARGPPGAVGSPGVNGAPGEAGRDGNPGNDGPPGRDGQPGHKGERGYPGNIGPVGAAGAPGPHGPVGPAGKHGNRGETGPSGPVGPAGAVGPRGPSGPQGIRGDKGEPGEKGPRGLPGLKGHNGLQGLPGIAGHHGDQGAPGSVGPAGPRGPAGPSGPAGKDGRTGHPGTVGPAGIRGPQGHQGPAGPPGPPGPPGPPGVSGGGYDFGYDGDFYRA", "assay": "SPR; Simplagrin-CT with collagen type I and III; who was immobilised is not told in what was shown"}, "[4]": {"molecular_target": "Soluble human collagen type III (human) (UniProt P02461)", "assay": "SPR; Simplagrin-CT with collagen type I and III; who was immobilised is not told in what was shown"}, "[5]": {"molecular_target": "T1, Soluble human collagen type I (human, UniProt P02452 162-1218; P08123 80-1119)", "T1 construct": "also called Collagen-I; Col-I; source: bought: R&D Systems", "T1 sequence (P02452 162-1218, chain 1 of 2)": "as the sequence (P02452 162-1218, chain 1 of 2) above", "T1 sequence (P08123 80-1119, chain 2 of 2)": "as the sequence (P08123 80-1119, chain 2 of 2, further chain) above", "assay": "SPR; kinetics: collagen type I or III immobilised on CM5 by amine coupling, Simplagrin as analyte (0.015-1 µM), 180 s contact at 30 µL/min, 25°C, HBS-P, 1:1 Langmuir model", "conditions": "both partners purified"}, "[6]": {"molecular_target": "T1, Soluble human collagen type I", "assay": "SPR; steady state: Simplagrin immobilised on CM5 (500 RU), soluble collagens as analyte, HBS-P; KD as the analyte concentration at 50% of saturation", "conditions": "both partners purified"}, "[7]": {"molecular_target": "Soluble human collagen type IV (human, UniProt P02462 173-1669; P08572 184-1712)", "assay": "SPR; steady state: Simplagrin immobilised on CM5 (500 RU), soluble collagens as analyte, HBS-P; KD as the analyte concentration at 50% of saturation", "conditions": "both partners purified"}, "[8]": {"molecular_target": "T2, Soluble human collagen type III (human, UniProt P02461 154-1221)", "T2 construct": "also called Collagen-III; collagen III; source: bought: R&D Systems", "T2 sequence (looked up)": "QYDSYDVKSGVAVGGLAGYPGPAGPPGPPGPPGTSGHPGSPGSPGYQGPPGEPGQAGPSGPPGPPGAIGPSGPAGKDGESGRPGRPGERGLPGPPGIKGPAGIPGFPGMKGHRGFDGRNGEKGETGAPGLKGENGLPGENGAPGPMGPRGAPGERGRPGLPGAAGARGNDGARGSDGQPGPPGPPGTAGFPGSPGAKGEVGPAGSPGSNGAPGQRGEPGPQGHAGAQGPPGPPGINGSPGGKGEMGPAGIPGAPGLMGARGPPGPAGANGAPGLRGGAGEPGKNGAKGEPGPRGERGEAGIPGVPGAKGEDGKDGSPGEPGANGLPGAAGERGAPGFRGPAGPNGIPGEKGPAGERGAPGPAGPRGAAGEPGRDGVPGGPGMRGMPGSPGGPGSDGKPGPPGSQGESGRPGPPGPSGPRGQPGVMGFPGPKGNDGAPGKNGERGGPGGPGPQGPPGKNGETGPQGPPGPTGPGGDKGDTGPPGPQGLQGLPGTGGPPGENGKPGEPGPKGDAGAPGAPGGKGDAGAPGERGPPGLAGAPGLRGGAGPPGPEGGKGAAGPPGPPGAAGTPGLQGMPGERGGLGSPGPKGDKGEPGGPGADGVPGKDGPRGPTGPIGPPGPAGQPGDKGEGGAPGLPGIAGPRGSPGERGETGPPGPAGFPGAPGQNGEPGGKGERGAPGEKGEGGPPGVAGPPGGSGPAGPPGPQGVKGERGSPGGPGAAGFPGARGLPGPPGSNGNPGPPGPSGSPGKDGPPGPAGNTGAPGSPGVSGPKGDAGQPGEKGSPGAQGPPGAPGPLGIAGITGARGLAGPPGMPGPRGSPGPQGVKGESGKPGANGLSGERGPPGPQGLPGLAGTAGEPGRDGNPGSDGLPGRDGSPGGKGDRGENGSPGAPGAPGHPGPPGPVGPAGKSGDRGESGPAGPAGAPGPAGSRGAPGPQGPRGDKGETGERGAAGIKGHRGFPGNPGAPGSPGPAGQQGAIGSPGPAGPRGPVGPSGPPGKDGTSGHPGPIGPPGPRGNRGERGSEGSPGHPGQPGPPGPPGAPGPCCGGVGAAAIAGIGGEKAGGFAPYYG", "assay": "SPR; steady state: Simplagrin immobilised on CM5 (500 RU), soluble collagens as analyte, HBS-P; KD as the analyte concentration at 50% of saturation", "conditions": "both partners purified"}, "[9]": {"molecular_target": "Soluble human collagen type VI (human, UniProt P12109 20-1028; P12110 21-1019; P12111 26-3177)", "assay": "SPR; steady state: Simplagrin immobilised on CM5 (500 RU), soluble collagens as analyte, HBS-P; KD as the analyte concentration at 50% of saturation", "conditions": "both partners purified"}, "[10]": {"molecular_target": "T2, Soluble human collagen type III", "assay": "ELISA; blocking: collagen type III (0.3 µg/mL) coated, Simplagrin 0.0015-1.5 µM for one hour at 37°C, washed, then 3 nM vWF; detected with anti-human vWF", "conditions": "both partners purified"}, "[11]": {"molecular_target": "T1, Soluble human collagen type I", "assay": "SPR; thermodynamics: Simplagrin (10-500 nM) over immobilised collagen type I or III at 15, 20, 25, 30, 35 and 40°C; 1:1 model, van't Hoff equation", "conditions": "both partners purified"}, "[12]": {"molecular_target": "T2, Soluble human collagen type III", "assay": "SPR; thermodynamics: Simplagrin (10-500 nM) over immobilised collagen type I or III at 15, 20, 25, 30, 35 and 40°C; 1:1 model, van't Hoff equation", "conditions": "both partners purified"}, "[13]": {"molecular_target": "T2, Soluble human collagen type III", "assay": "SPR; kinetics: collagen type I or III immobilised on CM5 by amine coupling, Simplagrin as analyte (0.015-1 µM), 180 s contact at 30 µL/min, 25°C, HBS-P, 1:1 Langmuir model", "conditions": "both partners purified"}}}
{"molecule": "Collagen type I from rat tail (from UniProt P02454 23-1207; P02466 86-1125) (natural protein)", "values": [{"measurement": "Kd", "setting": "[1]", "value": 12.4, "unit": "nM"}]}
{"molecule": "RGQOGVMGF collagen-derived peptide (vWF-recognition peptide)", "values": [{"measurement": "Kd", "setting": "[2]", "value": 11.1, "unit": "nM"}, {"measurement": "koff", "setting": "[2]", "value": 0.00048, "unit": "s⁻¹"}, {"measurement": "kon", "setting": "[2]", "value": 727000, "unit": "M⁻¹ s⁻¹"}]}
{"molecule": "Soluble human collagen type V (from UniProt P20908 38-1605; P05997 27-1229) (natural protein)", "values": [{"measurement": "Kd", "setting": "[1]", "value": 10.8, "unit": "nM"}]}
{"molecule": "Simplagrin carboxy-terminus domain (Simplagrin-CT) (domain or fragment)", "values": [{"measurement": "Kd", "setting": "[3]", "value": 285, "unit": "nM"}, {"measurement": "Kd", "setting": "[4]", "value": 162, "unit": "nM"}]}
{"molecule": "B1", "values": [{"measurement": "Kd", "setting": "[5]", "value": 5.51, "unit": "nM"}, {"measurement": "Kd", "setting": "[6]", "value": 10.3, "unit": "nM"}, {"measurement": "Kd", "setting": "[7]", "value": 27.6, "unit": "nM"}, {"measurement": "Kd", "setting": "[8]", "value": 9.72, "unit": "nM"}, {"measurement": "Kd", "setting": "[9]", "value": 23.3, "unit": "nM"}, {"measurement": "IC50", "setting": "[10]", "value": "~100", "unit": "nM"}, {"measurement": "dH", "setting": "[11]", "value": -4.54, "unit": "kcal/mol"}, {"measurement": "dH", "setting": "[12]", "value": -12.9, "unit": "kcal/mol"}, {"measurement": "Kd", "setting": "[13]", "value": 2.1, "unit": "nM"}, {"measurement": "koff", "setting": "[13]", "value": 0.00031, "unit": "s⁻¹"}, {"measurement": "kon", "setting": "[13]", "value": 148000, "unit": "M⁻¹ s⁻¹"}]}
